Assay results published in publication PMC4137706 (Molecular Biology and Evolution, 2014).

T1: Full-length human Flotillin 1 N-terminally tagged with GST (GST-HsFlotillin 1) (human, UniProt O75955 1-427)
T1 sequence: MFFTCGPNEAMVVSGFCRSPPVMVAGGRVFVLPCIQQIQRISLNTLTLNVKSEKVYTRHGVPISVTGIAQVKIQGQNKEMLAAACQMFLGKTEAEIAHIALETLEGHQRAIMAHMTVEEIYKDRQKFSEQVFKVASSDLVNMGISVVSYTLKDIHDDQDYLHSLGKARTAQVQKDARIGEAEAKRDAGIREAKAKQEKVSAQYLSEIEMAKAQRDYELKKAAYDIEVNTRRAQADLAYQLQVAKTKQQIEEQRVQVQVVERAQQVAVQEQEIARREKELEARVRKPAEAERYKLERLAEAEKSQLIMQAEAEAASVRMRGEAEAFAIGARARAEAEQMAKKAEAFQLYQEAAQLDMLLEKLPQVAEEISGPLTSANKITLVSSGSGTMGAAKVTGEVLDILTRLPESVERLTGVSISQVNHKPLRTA


Experiments:
[1] = target: Full-length S. rosetta Flotillin 1 N-terminally tagged with GST (GST-SrFlotillin 1) (S. rosetta); assay: […]
[2] = target: T1, Full-length human Flotillin 1 …; assay: pull-down

Molecule	Kd [1]	Kd [2]
Full-length Salpingoeca rosetta Homer, N-terminally hexahistidine-tagged (His-SrHomer) (natural protein)	960 nM	
Full-length human Homer 1, N-terminally hexahistidine-tagged (His-HsHomer 1) (natural protein) MGEQPIFSTRAHVFQIDPNTKKNWVPTSKHAVTVSYFYDSTRNVYRIISLDGSKAIINSTITPNMTFTKTSQKFGQWADSRANTVYGLGFSSEHHLSKFAEKFQEFKEAARLAKEKSQEKMELTSTPSQESAGGDLQSPLTPESINGTDDERTPDVTQNSEPRAEPTQNALPFSHSSAISKHWEAELATLKGNNAKLTAALLESTANVKQWKQQLAAYQEEAERLHKRVTELECVSSQANAVHTHKTELNQTIQELEETLKLKEEEIERLKQEIDNARELQEQRDSLTQKLQEVEIRNKDLEGQLSDLEQRLEKSQNEQEAFRNNLKTLLEILDGKIFELTELRDNLAKLLECS		~830 nM
